Data set [1] has as its system MS2 coat protein. As to the kind of experiment: apparent KD of MS2 coat protein, switch OFF state (with FMN for OFF switches, without FMN for ON switches); designed switch direction (-1 OFF switch, 1 ON switch): -1; higher = weaker reporter binding. The note with it: FMN input: 0 or 200 uM; Eterna round: R93 (includes R88 designs). The gist of the method:
(§1)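 Binding of SNAP-549-labelled MS2 coat protein was measured on designed RNA switches transcribed on-chip from Illumina sequencing clusters. The protein rose in twofold steps from 0.7 or 1.5 nM to 3 µM, with 0.8–1.5 h per step early on and 10–20 min per step later, in 100 mM Tris-HCl pH 7.5, 80 mM KCl, 4 mM MgCl2, without or with constant ligand. Each design's apparent KD is the median of fits to its normalised cluster binding curves.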

The test system of data set [2] is MS2 coat protein. In words: apparent KD of MS2 coat protein, switch ON state; designed switch direction (-1 OFF switch, 1 ON switch): -1; higher = weaker reporter binding. The note with it: FMN input: 0 or 200 uM; Eterna round: R93 (includes R88 designs). The gist of the method:
as §1

Data set [3] relates to MS2 coat protein. In words: apparent KD of MS2 coat protein; designed switch direction (-1 OFF switch, 1 ON switch): 1; higher = weaker reporter binding. The gist of the method: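 Designed RNA switches with common flanks were made on Illumina chips by stalled E. coli RNA polymerase. Titration with SNAP-549-labelled MS2 coat protein doubled from 0.7 or 1.5 nM up to 3 µM. Apparent KD is each design's median over clusters after curve-fitting normalised fluorescence.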

Where [4] appears, read: input ligand: microRNA oligo, concentration not stated.
Where [5] appears, read: Eterna round: R95, input ligand: microRNA oligo, concentration not stated.

Here are results for 33 sequences from the supplement of paper PMC9170038.

Regarding “AAAAAAAGAGGAUAUACGAACAUGUCAAAAGACGUGAAGGGACAUGAGGAUCACCCAUGUAGAAGGCUUAAAAA [JL Part Open 28]”, the “apparent KD of MS2 coat protein” value was determined as 26.3 nM with MS2 coat protein [1] and 38.7 nM in the data set with MS2 coat protein [2].
With “AAAAAACAUGAGGAUCACCCAUGUAAGGAUAUGCAAAAUAAAAGAAAUAAAAAGAAAAGCAGAAGGUACAUUAA [JL wbt mod 9]”, the “apparent KD of MS2 coat protein” value with MS2 coat protein [1] turned out to be 37.9 nM; in the data set on MS2 coat protein [2], 23.6 nM.
Consider “AAAAAACAUGAGGAUCACCCAUGUGAGGAUAUACAAAGAAAGACAGGCAAGUAAAGAGGUAGAAGGCGCAAAAA [Default title]”, for which the “apparent KD of MS2 coat protein” value in the data set with MS2 coat protein [1] was found to be 18.2 nM; in the data set with MS2 coat protein [2], 15.4 nM.
For “AAAAAACAUGAGGAUCACCCAUGUGAGGAUAUCCUAAAGGGAAUAAAAUAACUCAAAAGGAGAAGGCGCAAAAA [Ex 1 May 31]” the same measures were 46.3 nM and 60.2 nM.
The corresponding values for “AAAAAACAUGAGGAUCACCCAUGUGAGGAUAUCGCUAGUCAGUCAUCAGAGUGAGUGAUGAGAAGGCACAUAAA [Brourd 613 Mod 6 - Jieux - Exclusion 1]” are 31.9 nM and 26.3 nM.
The corresponding values for “AAAAAACAUGAGGAUCACCCAUGUGAGGAUAUCGCUAGUCAGUCCCUAGAGUGAGUGAUGAGAAGGCACAUAAA [Brourd 613 Mod 7 - Jieux - Exclusion 1]” are 49.6 nM and 40.9 nM.
Consider “AAAAAACAUGAGGAUCACCCAUGUGAGGAUAUCGGAAAAGGAAAAAAAAAAAAGAAGACGAGAAGGCACAAAGA”, for which the “apparent KD of MS2 coat protein” value in the data set on MS2 coat protein [1] worked out at 28.6 nM; with MS2 coat protein [2], 26.6 nM.
For “AAAAAACAUGAGGAUCACCCAUGUGAGGAUAUCGGAAAAGGAAAAAUAAAAAAGAAGACGAGAAGGCACACCAA [Mat - Exclusion 1 - Eli mod - D74]” the same measures were 24.6 nM and 20.9 nM.
For “AAAAAACAUGAGGAUCACCCAUGUGAGGAUAUCGGUAGUGAGGCUAUAGUGUCAAUAGUGAGAAGGCACAUAAA [Brourd 613 Mod 12 - Jieux - Exclusion 1]” the same measures were 29.2 nM and 31.1 nM.
As to “AAAAAACAUGAGGAUCACCCAUGUGAGGAUAUCGUAAACAAAAAAAACAAAAACAAAUCGAGAAGGCACAAAAA [Amethyst 34]”, the “apparent KD of MS2 coat protein” value was 35.1 nM in the data set with MS2 coat protein [1] and 21 nM in the data set with MS2 coat protein [2].
For the sequence “AAAAAACAUGAGGAUCACCCAUGUGAGGAUAUCUGAAAAAAAAAAAAAAAAAAGAAAAAGAGAAGGCGCAAAGA [Ex 1 #2]”, the “apparent KD of MS2 coat protein” value was 35.1 nM with MS2 coat protein [1] and 38 nM with MS2 coat protein [2].
The corresponding values for “AAAAAACAUGAGGAUCACCCAUGUGAGGAUAUGAACGAAAAUAAAUAAAAAUAAAAGUUCAGAAGGUACGAAAA [66%, Wbt, 3]” are 30.7 nM and 25.2 nM.
On to “AAAAAACAUGAGGAUCACCCAUGUGAGGAUAUGACGUAAAUAAAGAAAGAAGAAAUCGUCAGAAGGCACAAAAA [55%, Disencluded 2, 6]”, for which the “apparent KD of MS2 coat protein” value in the data set with MS2 coat protein [1] turned out to be 41 nM; in the data set on MS2 coat protein [2], 42.3 nM.
The corresponding values for “AAAAAACAUGAGGAUCACCCAUGUGAGGAUAUGACGUAAAUAAAGAAAGAAGAAAUCGUCAGAAGGCACACCAA [55%, Disencluded 2, 5]” are 43.1 nM and 29.8 nM.
On to “AAAAAACAUGAGGAUCACCCAUGUGAGGAUAUGAUGCGAAUAAAGAAAGAAGAAAGCAUCAGAAGGCACACCAA [58%, Disencluded 3, 1]”, for which the “apparent KD of MS2 coat protein” value was found to be 52 nM in the data set on MS2 coat protein [1] and 29.4 nM in the data set on MS2 coat protein [2].
The corresponding values for “AAAAAACAUGAGGAUCACCCAUGUGAGGAUAUGCAAAAAAAAAAAAAAAAAAAAAAAAGCAGAAGGCGCAAAAA [4 GC Strong]” are 38.9 nM and 20.6 nM.
The corresponding values for “AAAAAACAUGAGGAUCACCCAUGUGAGGAUAUGCAAAACCCAUAUAAAAAGGGAAAAAGCAGAAGGCACAAAAA [Starry Exclusion 1.3 (wbt round 1 mod)]” are 55.8 nM and 22.8 nM.
Turning to “AAAAAACAUGAGGAUCACCCAUGUGAGGAUAUGCAAAAGAAAAGAAAAGAAAGAAGAAGCAGAAGGCACAAGAA [Djedefra]”, the “apparent KD of MS2 coat protein” value in the data set on MS2 coat protein [1] amounted to 36.8 nM; with MS2 coat protein [2], 29.4 nM.
Consider “AGAACGUCAGGAUAUCCAACAACAAGUAAAUAGAGAAGAAGGGAGAAGGGACAUGAGGAUCACCCAUGUAAGAA [e4-2]”, for which the “apparent KD of MS2 coat protein” value with MS2 coat protein [1] was determined as 29.9 nM.
Regarding “UUAUUCUAUAUAGGAUAUUGAUGCAAUUUACCUCAAGAAGGAUAUACAUGAGGAUCACCCAUGUUGGAUAGGGUUAGUUUGUUU [JR_SSNG1_Sub081] (Eterna round: R96, puzzle: Same State NG 1)”, the “apparent KD of MS2 coat protein” value in the data set with MS2 coat protein [3] (setting [4]) was 56 nM.
For the sequence “UUCCCAUCGGGAGGAUAUGGUGCCUUAUUGGUGCUAGAAGGUCCAACAUGAGGAUCACCCAUGUGGGAGUGGUCUAAUGACCUC [SS NG10LRO06] (Eterna round: R96, puzzle: Same State NG 1)”, the “apparent KD of MS2 coat protein” value in the data set on MS2 coat protein [3] (input ligand: FMN 200 uM) came out at 338 nM; with MS2 coat protein [3] (setting [4]), 204 nM; with MS2 coat protein [3] (input ligand: none), 355 nM.
The corresponding values for “UUGAAGAAUUAAGGAUAUUGAAUACAUAUGUUUAACAUGAGGAUCACCCAUGUGGGUUGCGGUGUCGAGAAGGUAAAUUACUAG [JL SSNG2 1.50] (Eterna round: R96, puzzle: Same State NG 2)” are 256 nM, 177 nM and 207 nM.
The corresponding values for “UUGAUUAACGUAGGAUAUCGACCUACAUGAGGAUCACCCAUGUCUUUGUAUAGUUUUUUUUGUUACGAGAAGGACGUUAUGUAU [JR_SSNG2_Sub067] (Eterna round: R96, puzzle: Same State NG 2)” are 78.6 nM, 100 nM and 106 nM.
For “UUGGUUCUCGUAGGAUAUGUAGGAUAUGCCUACAUGAGGAUCACCCAUGUUCGCAUGGCAGAAGGACAGAAGGACGAUCACCAU [pwkr ssNG2 2FMN + 1F5.17] (Eterna round: R96, puzzle: Same State NG 2)”, in the data set on MS2 coat protein [3] (setting [4]), the “apparent KD of MS2 coat protein” value was 136 nM.
Regarding “UUGGUUGUCGUAGGAUAUGUAGGAUAUUCCUACAUGAGGAUCACCCAUGUUCGCAUGGAAGAAGGACAGAAGGACGAUGACCAU [pwkr ssNG2 2FMN + 1F5.20] (Eterna round: R96, puzzle: Same State NG 2)”, the “apparent KD of MS2 coat protein” value was found to be 16.8 nM in the data set on MS2 coat protein [3] (input ligand: FMN 200 uM), 904 nM in the data set on MS2 coat protein [3] (setting [4]) and 836 nM with MS2 coat protein [3] (input ligand: none).
With “UUUACAUUACGAGGAUAUCAUUUAUUUCAUGUUUGAGAAGGCGUUUUUUUUAUUACCUUACAUGAGGAUCACCCAUGUUUCUUU [JR_SSNG1_Sub043] (Eterna round: R96, puzzle: Same State NG 1)”, the “apparent KD of MS2 coat protein” value in the data set on MS2 coat protein [3] (setting [4]) is 26.2 nM.
For the sequence “UUUAGAUCGCGAGGAUAUCGCGAGGAUCACCCGUGAGAAGGCGCAGAGCCGAGGAUCACCCGGCUGAUCCUGAGAAGGAGGUCU (Eterna round: R96, puzzle: Same State NG 1)”, the results for the “apparent KD of MS2 coat protein” value in the data set with MS2 coat protein [3] (input ligand: FMN 200 uM), with MS2 coat protein [3] (setting [4]) and in the data set on MS2 coat protein [3] (input ligand: none) were 45.1 nM, 87.7 nM and 129 nM, respectively.
With “UUUAGUUGCGGGCAGGAUAUGUAUUAAAAUACAUGAGGAUCACCCAUGUGCGGGUGUAACACCCGACAGAAGGGCCAAUCGCGAC [Laonerce - 13] (puzzle: Same State 2)”, the “apparent KD of MS2 coat protein” value in the data set with MS2 coat protein [3] (setting [5]) was 220 nM.
For “UUUAUUAAUAUAGGAUAUGUAAAACAUGAGGAUCACCCAUGUGAUAUCGUGAGUAAGGAGAGAGAACAGAAGGAUAAUUUUUUU [JMF's solution 2] (Eterna round: R96, puzzle: Same State NG 2)”, the “apparent KD of MS2 coat protein” value with MS2 coat protein [3] (input ligand: FMN 200 uM) came out at 39.7 nM; in the data set on MS2 coat protein [3] (setting [4]), 35.1 nM; with MS2 coat protein [3] (input ligand: none), 32.5 nM.
For “UUUCGAUAGAUAGGAUAUCACUUUACAUGAGGAUCACCCAUGUUGGCUGUGCUGAUUAUUAAAACUGAGAAGGAUCUUGAUGAC [JR_SSNG2_Sub003] (Eterna round: R96, puzzle: Same State NG 2)” the same measures were 25.2 nM, 22 nM and 23.5 nM.
As to “UUUGAAUUGCAAGGAUAUCUUAUUUAGAUUUUAAGAGAAGGUGCUUUACAGUUACAUGAGGAUCACCCAUGUCUUUCUUUUUAU [JR_SSNG1_Sub063] (Eterna round: R96, puzzle: Same State NG 1)”, the “apparent KD of MS2 coat protein” value with MS2 coat protein [3] (setting [4]) was 19.3 nM.
As for “UUUUUUAUCGUAGGAUAUAGGUUGAAUAAUAGACUAGAAGGACGUCACAUGAGGAUCACCCAUGUUUUUUAAGUGUCGAAGUGU [JR_SSNG1_Sub040] (Eterna round: R96, puzzle: Same State NG 1)”, the “apparent KD of MS2 coat protein” value with MS2 coat protein [3] (input ligand: FMN 200 uM) came out at 31.3 nM; in the data set with MS2 coat protein [3] (setting [4]), 23 nM; with MS2 coat protein [3] (input ligand: none), 29.4 nM.
“UUUUUUUUGACGAGACAAGCUUUUUGAUCACAUGAGGAUCACCCAUGUCUCGUCUUAUUUUUUUUUUUUUUUUUUUU [BA Sensor hsa-mir-208a - 2 - 2] (puzzle: Sensor for hsa-mir-208a)”: the “apparent KD of MS2 coat protein” value is 17.4 nM in the data set on MS2 coat protein [3] (Eterna round: R95, input ligand: FMN 200 uM); 9.64 nM in the data set with MS2 coat protein [3] (setting [5]); 7.54 nM in the data set with MS2 coat protein [3] (Eterna round: R95, input ligand: none).
